Data: article doi:10.1101/2024.07.18.604210

Columns and labels:
[1] = biological target: C-terminal domain of SepF from M. tuberculosis (tbSepF-CTD, residues 146-241) (M. tuberculosis); assay: SAXS
[2] = biological target: C-terminal domain of SepF from M. tuberculosis (tbSepF-CTD, residues 146-241) (M. tuberculosis); assay: AUC
[3] = biological target: C-terminal domain of SepF from M. tuberculosis (tbSepF-CTD, residues 146-241) (M. tuberculosis); assay: ITC

Sequence of C-terminal domain of SepF from M. tuberculosis (tbSepF-CTD, residues 146-241) (M. tuberculosis) (A1KKJ0 123-218 limits assumed): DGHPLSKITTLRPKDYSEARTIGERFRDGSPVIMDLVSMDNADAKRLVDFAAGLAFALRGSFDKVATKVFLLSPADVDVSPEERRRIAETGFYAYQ

Row | Substance | stoichiometry N [1] | stoichiometry N [2] | Kd [3] | stoichiometry N [3]
1 | C-terminal domain of SepF from M. tuberculosis (tbSepF-CTD, residues 146-241) (domain or fragment) | 2 | 2 | – | –
2 | chemically synthesized 18-residue peptide from the C-terminal region of tbFtsZ | – | – | 19.7 µM | 1
